{"source": "patent US20220380471A1", "about": "(US Dept. of Health and Human Services, published 2022)", "binders": {"B1": {"name": "RWG4 (VHH)", "VHH": "QVQLVQSGGGLVQPGGSLRLSCAASGFTFSVYWFYWVRQAPRQGLEWVSTIASNGSTYYSDSVKGRFTISRDNAKNTVYLQMNSLKPEDTAVYYCVSDPDYYSDYERAYKFWAQGTQVTVSS", "notes": "Camel VHH; tag not described; also called camel antibody RWG4"}, "B2": {"name": "RWC4 (VHH)", "VHH": "EVQLVESGGGSVQAGGSLRLSCVASEDSTSAMCMGWFRQAPGKEREGVACINPTGEVTWYGDSVKGRFTISRDTVKKIVYLQMNSLKPEDTAMYYCAARVTYGGDWSTDTDYEYWGQGTQVTVSS", "notes": "Camel VHH; tag not described; also called camel antibody RWC4"}, "B3": {"name": "RWB12 (VHH)", "VHH": "QVQLVESGGGSVQVGGSLRLSCAASGFTYNSYSVGWFRQAPGKEREGVAAINSGGSSTYYAASVKGRFTISRDNAKNTVYLQMNSLKPEDTAMYYCAARSPSPLTFQTRTLREDSYNYWGQGTQVTVSS", "notes": "Camel VHH; tag not described; also called camel antibody RWB12"}, "B4": {"name": "RWG8 (VHH)", "VHH": "DVQLVESGGGLVQPGGSLRLSCAASGFTFSRYWMGWFRQAPGKGVEWVSTINSGGGSTYYADSVKGRFTISRDNAKNTLYLQLNNLKTEDTAMYYCAKEQWRTGSRGQGTQVTVSS", "notes": "Camel VHH; tag not described; also called camel antibody RWG8"}}, "key": {"[1]": {"target": "T1, B7H3 (CD276) on MC38-CD276+ cells", "T1 construct": "whole, on cells; MC38-CD276KO cells served as the negative control; also called MC38-B7H3+", "T1 sequence (Q5ZPR3 1-534, species assumed, looked up)": "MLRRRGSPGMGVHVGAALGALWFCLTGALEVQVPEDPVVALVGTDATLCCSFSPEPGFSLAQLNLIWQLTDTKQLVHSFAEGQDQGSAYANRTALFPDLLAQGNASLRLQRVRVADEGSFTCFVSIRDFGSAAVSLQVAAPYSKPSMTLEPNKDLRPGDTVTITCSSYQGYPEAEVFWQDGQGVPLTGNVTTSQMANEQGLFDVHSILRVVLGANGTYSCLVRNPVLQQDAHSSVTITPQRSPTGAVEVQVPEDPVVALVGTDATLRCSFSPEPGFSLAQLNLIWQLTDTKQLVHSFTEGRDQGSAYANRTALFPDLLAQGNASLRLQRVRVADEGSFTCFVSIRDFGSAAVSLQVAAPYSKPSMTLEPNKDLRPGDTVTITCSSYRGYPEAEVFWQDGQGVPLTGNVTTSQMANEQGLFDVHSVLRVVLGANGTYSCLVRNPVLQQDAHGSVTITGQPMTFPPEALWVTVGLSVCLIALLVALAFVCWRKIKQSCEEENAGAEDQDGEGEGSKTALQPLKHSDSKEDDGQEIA", "experiment": "flow cytometry on MC38-CD276+ cells, VHH at 2 ug/ml"}, "[2]": {"target": "T1, B7H3 (CD276) on MC38-CD276+ cells", "experiment": "flow cytometry on MC38-CD276+ cells, VHH at 50 ug/ml"}, "[3]": {"target": "T1, B7H3 (CD276) on MC38-CD276+ cells", "experiment": "flow cytometry on MC38-CD276+ cells, VHH at 0.5 ug/ml"}, "HN3-Fc [4]": {"target": "HN3-Fc", "experiment": "ELISA; row HN3-Fc; well 1 of 3", "outline": "(§1)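 The values are ELISA signals for binding of purified camel VHH nanobodies to immobilised recombinant B7H3 fusion proteins and to non-B7H3 comparison proteins. The nanobodies came from phage panning on recombinant B7H3-Fc.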"}, "HN3-Fc [5]": {"target": "HN3-Fc", "experiment": "ELISA; row HN3-Fc; well 3 of 3", "outline": "as §1"}, "monkey B7H3-His [6]": {"target": "T2, monkey B7H3-His (monkey)", "T2 chain": "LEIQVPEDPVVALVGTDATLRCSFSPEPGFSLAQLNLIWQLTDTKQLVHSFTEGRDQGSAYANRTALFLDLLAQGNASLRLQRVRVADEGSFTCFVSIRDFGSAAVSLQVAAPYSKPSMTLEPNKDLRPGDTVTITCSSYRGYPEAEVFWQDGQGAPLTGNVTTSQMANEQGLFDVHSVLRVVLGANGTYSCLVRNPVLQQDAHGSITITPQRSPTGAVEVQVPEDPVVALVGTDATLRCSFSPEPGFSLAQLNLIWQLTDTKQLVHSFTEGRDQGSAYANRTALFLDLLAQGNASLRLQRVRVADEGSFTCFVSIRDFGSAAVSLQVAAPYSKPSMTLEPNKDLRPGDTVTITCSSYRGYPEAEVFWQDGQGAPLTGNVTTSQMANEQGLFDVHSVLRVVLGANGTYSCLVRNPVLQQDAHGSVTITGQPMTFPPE", "experiment": "ELISA; row Monkey; well 1 of 3", "outline": "as §1"}, "monkey B7H3-His [7]": {"target": "T2, monkey B7H3-His", "experiment": "ELISA; row Monkey; well 2 of 3", "outline": "as §1"}, "[8]": {"target": "T3, recombinant human B7H3-Fc protein (human, UniProt Q5ZPR3 29-466, limits assumed)", "T3 construct": "154 kDa non-reduced, 77 kDa reduced; also called hB7H3-Fc; not shown: Fc part", "T3 sequence (looked up)": "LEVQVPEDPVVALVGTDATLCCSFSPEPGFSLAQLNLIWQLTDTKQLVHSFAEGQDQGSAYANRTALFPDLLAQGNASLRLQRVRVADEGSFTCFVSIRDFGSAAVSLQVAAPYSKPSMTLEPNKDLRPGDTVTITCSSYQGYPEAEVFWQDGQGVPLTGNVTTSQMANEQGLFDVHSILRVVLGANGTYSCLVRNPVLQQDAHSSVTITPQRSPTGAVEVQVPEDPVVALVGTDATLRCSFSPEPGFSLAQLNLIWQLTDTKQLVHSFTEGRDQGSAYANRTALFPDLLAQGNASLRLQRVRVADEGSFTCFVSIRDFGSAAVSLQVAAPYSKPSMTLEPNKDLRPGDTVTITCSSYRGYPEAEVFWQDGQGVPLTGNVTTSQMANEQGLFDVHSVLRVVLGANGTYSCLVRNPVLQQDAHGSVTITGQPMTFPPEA", "experiment": "ELISA; row B7H3-Fc; well 1 of 3", "outline": "as §1"}, "[9]": {"target": "T3, recombinant human B7H3-Fc protein", "experiment": "ELISA; row B7H3-Fc; well 2 of 3", "outline": "as §1"}, "[10]": {"target": "T3, recombinant human B7H3-Fc protein", "experiment": "ELISA; row B7H3-Fc; well 3 of 3", "outline": "as §1"}, "PD-L1": {"target": "PD-L1", "sequence (Q9NZQ7 whole entry)": "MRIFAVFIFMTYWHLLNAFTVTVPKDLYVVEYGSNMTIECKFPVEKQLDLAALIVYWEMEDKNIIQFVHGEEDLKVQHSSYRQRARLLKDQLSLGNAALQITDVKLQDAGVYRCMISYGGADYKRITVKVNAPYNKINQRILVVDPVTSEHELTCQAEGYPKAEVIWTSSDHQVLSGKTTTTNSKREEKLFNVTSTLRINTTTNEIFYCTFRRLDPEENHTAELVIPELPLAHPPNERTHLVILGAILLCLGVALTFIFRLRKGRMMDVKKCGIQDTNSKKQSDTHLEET", "experiment": "ELISA; row PDL1-Fc; well 2 of 3", "outline": "as §1"}, "B7H3 R&D": {"target": "B7H3 R&D", "experiment": "ELISA; row B7H3 R&D; well 1 of 3", "outline": "as §1"}, "hB7H3-His": {"target": "T4, hB7H3-His (human, UniProt Q5ZPR3 29-461, limits assumed)", "T4 construct": "not shown: His tag", "T4 sequence (looked up)": "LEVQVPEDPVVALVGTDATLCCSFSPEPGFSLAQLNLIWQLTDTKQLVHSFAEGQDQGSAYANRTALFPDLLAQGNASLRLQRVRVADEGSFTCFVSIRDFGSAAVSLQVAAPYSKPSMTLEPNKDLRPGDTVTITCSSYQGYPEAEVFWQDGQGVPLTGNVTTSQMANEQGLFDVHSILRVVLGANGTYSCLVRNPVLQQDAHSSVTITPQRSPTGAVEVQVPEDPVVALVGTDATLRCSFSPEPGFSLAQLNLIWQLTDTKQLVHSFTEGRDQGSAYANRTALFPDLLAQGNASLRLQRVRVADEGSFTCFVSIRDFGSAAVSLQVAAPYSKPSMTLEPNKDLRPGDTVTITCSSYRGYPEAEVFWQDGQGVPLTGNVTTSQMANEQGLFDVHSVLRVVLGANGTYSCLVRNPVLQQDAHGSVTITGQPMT", "experiment": "ELISA; row B7H3-his; well 1 of 3", "outline": "as §1"}, "Irrelevant antigen": {"target": "T5, Irrelevant antigen", "T5 construct": "negative control", "experiment": "ELISA; row Irrelevant antigen; well 1 of 3", "outline": "as §1"}}, "data": [{"binder": "B1", "values": [{"measurement": "Positive rates", "setting": "[1]", "value": 23.4, "unit": "%"}, {"measurement": "Positive rates", "setting": "[2]", "value": 91.5, "unit": "%"}, {"measurement": "Positive rates", "setting": "[3]", "value": 1.25, "unit": "%"}]}, {"binder": "B2", "values": [{"measurement": "ELISA reading (name not given)", "setting": "HN3-Fc [4]", "value": 0.0801}, {"measurement": "ELISA reading (name not given)", "setting": "HN3-Fc [5]", "value": 0.0467}, {"measurement": "ELISA reading (name not given)", "setting": "monkey B7H3-His [6]", "value": 1}, {"measurement": "ELISA reading (name not given)", "setting": "monkey B7H3-His [7]", "value": 1}, {"measurement": "ELISA reading (name not given)", "setting": "[8]", "value": 2.01}, {"measurement": "ELISA reading (name not given)", "setting": "[9]", "value": 1.99}, {"measurement": "ELISA reading (name not given)", "setting": "[10]", "value": 1.95}, {"measurement": "ELISA reading (name not given)", "setting": "PD-L1", "value": 0.0627}, {"measurement": "ELISA reading (name not given)", "setting": "B7H3 R&D", "value": 0.132}, {"measurement": "ELISA reading (name not given)", "setting": "hB7H3-His", "value": 0.114}, {"measurement": "ELISA reading (name not given)", "setting": "Irrelevant antigen", "value": 0.0845}, {"measurement": "Positive rates", "setting": "[1]", "value": 84.7, "unit": "%"}, {"measurement": "Positive rates", "setting": "[2]", "value": 98.8, "unit": "%"}, {"measurement": "Positive rates", "setting": "[3]", "value": 14.4, "unit": "%"}]}, {"binder": "B3", "values": [{"measurement": "ELISA reading (name not given)", "setting": "HN3-Fc [4]", "value": 0.0533}, {"measurement": "ELISA reading (name not given)", "setting": "HN3-Fc [5]", "value": 0.048}, {"measurement": "ELISA reading (name not given)", "setting": "monkey B7H3-His [6]", "value": 0.188}, {"measurement": "ELISA reading (name not given)", "setting": "monkey B7H3-His [7]", "value": 0.201}, {"measurement": "ELISA reading (name not given)", "setting": "[8]", "value": 0.878}, {"measurement": "ELISA reading (name not given)", "setting": "[9]", "value": 0.945}, {"measurement": "ELISA reading (name not given)", "setting": "[10]", "value": 0.952}, {"measurement": "ELISA reading (name not given)", "setting": "PD-L1", "value": 0.0685}, {"measurement": "ELISA reading (name not given)", "setting": "B7H3 R&D", "value": 0.0582}, {"measurement": "ELISA reading (name not given)", "setting": "hB7H3-His", "value": 0.0603}, {"measurement": "ELISA reading (name not given)", "setting": "Irrelevant antigen", "value": 0.08}, {"measurement": "Positive rates", "setting": "[1]", "value": 0.18, "unit": "%"}, {"measurement": "Positive rates", "setting": "[2]", "value": 12, "unit": "%"}, {"measurement": "Positive rates", "setting": "[3]", "value": 0.23, "unit": "%"}]}, {"binder": "B4", "values": [{"measurement": "ELISA reading (name not given)", "setting": "HN3-Fc [4]", "value": 0.05}, {"measurement": "ELISA reading (name not given)", "setting": "HN3-Fc [5]", "value": 0.0535}, {"measurement": "ELISA reading (name not given)", "setting": "monkey B7H3-His [6]", "value": 0.197}, {"measurement": "ELISA reading (name not given)", "setting": "monkey B7H3-His [7]", "value": 0.198}, {"measurement": "ELISA reading (name not given)", "setting": "[8]", "value": 1.97}, {"measurement": "ELISA reading (name not given)", "setting": "[9]", "value": 2.01}, {"measurement": "ELISA reading (name not given)", "setting": "[10]", "value": 1.87}, {"measurement": "ELISA reading (name not given)", "setting": "PD-L1", "value": 0.0633}, {"measurement": "ELISA reading (name not given)", "setting": "B7H3 R&D", "value": 0.0696}, {"measurement": "ELISA reading (name not given)", "setting": "hB7H3-His", "value": 0.0693}, {"measurement": "ELISA reading (name not given)", "setting": "Irrelevant antigen", "value": 0.104}, {"measurement": "Positive rates", "setting": "[1]", "value": 0.31, "unit": "%"}, {"measurement": "Positive rates", "setting": "[2]", "value": 26.5, "unit": "%"}, {"measurement": "Positive rates", "setting": "[3]", "value": 0.1, "unit": "%"}]}]}
